Data on four molecules can be found in paper PMC11965559 (Nature Communications, 2024).

Read-outs that look alike come from different tables or passages of the source.

Common to all, as to assay: EMSA
In data set [1] the target is T1, SmD1 (1-109);SmD2;SmF;SmE;SmG (Saccharomyces cerevisiae;Saccharomyces …, UniProt Q02260;Q06217;P54999;Q12330;P40204 1-109;1-110;1-86;1-94;1-77, ||||).
The target of data set [2] is T2, SmD1 (1-109);SmD2;SmF;SmE;SmG;Brr1 (Saccharomyces cerevisiae;Saccharomyces …, UniProt Q02260;Q06217;P54999;Q12330;P40204;Q99177 1-109;1-110;1-86;1-94;1-77;1-341, |||||).
In data set [3] the target is T3, SmD1 (1-109);SmD2;SmF;SmE;SmG;SmD3 (1-88);SmB (1-105) (Saccharomyces cerevisiae;Saccharomyces …, UniProt Q02260;Q06217;P54999;Q12330;P40204;P43321;P40018 …, ||||||).
For data set [4], the target named is T1, SmD1 (1-109);SmD2;SmF;SmE;SmG. The source holds these as a separate data set.
Data set [5] addresses T3, SmD1 (1-109);SmD2;SmF;SmE;SmG;SmD3 …. The source holds these as a separate data set.
For data set [6], the target named is T2, SmD1 (1-109);SmD2;SmF;SmE;SmG;Brr1. The source holds these as a separate data set.
For data set [7], the target named is SmD1 (1-109);SmD2;SmF;SmE;SmG;Brr1;SmD3 (1-88);SmB (1-105) (Saccharomyces cerevisiae;Saccharomyces …, UniProt Q02260;Q06217;P54999;Q12330;P40204;Q99177;P43321;P40018 …, |||||||).
Data set [8] concerns the target T3, SmD1 (1-109);SmD2;SmF;SmE;SmG;SmD3 …. This is another data set of the same source.
For data set [9] the target is unchanged. The source holds these as a separate data set.

B1: Umini-3'ss (ssRNA)
RNA: GGGAAGUGUUACAGCUCUUUUAGAAUUUUUGGAGUAGGCUUUCUGGCUUUUCAGGCCUUUCGGGGA
With B1, the binding result in [1], in data set [2] and in data set [3] was “binds” throughout.

B2: Umini-snRNA (structured_RNA)
RNA: GGGAAGUGUUACAGCUCUUUUAGAAUUUUUGGAGUAGGCUUUCUGGCUUUUCACCGGAAAGCCCCU
In the case of B2, the binding result in data set [4], in data set [5] and in data set [6] was “binds” throughout.

B3: Umini-ΔSm-snRNA (structured_RNA)
RNA: GGGAAGUGUUACAGCUCUUUUAGAACCCCCGGAGUAGGCUUUCUGGCUUUUCACCGGAAAGCCCCU
Take B3: the binding result in data set [4], in [7], in [2] and in [8] was “no binding” throughout.

B4: U4-snRNA (structured_RNA)
RNA: GGAUCCUUAUGCACGGGAAAUACGCAUAUCAGUGAGGAUUCGUCCGAGAUUGUGUUUUUGCUGGUUGAAAUUUAAUUAUAAACCAGACCGUCUCCUCAUGGUCAAUUCGGUGUUCGCUUUUGAAUACUUCAAGACUAUGUAAAUUUUUGGAAUACCUUU
B4: the binding result in data set [2] and in data set [9] was “binds” each time.
